From patent US20150147337A1 (Merck Sharp & Dohme, published 2015) come the findings set out here.

The test addresses T1, Human IL-23 (human, UniProt P29460 23-328).
T1 construct: also called huIL-23
T1 sequence 1: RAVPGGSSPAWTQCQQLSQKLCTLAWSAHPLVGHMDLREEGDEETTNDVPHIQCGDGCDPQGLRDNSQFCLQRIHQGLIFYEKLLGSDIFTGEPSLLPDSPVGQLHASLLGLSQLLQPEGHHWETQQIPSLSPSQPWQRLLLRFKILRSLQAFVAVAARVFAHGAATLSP
T1 sequence 2: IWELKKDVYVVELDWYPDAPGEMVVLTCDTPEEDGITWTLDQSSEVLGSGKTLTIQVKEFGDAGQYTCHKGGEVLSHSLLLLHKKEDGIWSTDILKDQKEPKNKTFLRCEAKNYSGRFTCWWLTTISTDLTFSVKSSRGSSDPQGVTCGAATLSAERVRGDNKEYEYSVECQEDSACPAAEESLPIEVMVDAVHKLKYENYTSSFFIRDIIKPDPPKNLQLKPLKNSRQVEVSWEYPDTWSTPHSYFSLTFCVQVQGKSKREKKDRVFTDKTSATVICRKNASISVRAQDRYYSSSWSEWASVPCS
The test can be described thus: ELISA, human IL-23 immobilized on plate, HRP anti-IgG detection, four-parameter fit. The procedure: Re-dissolved crystalline anti-huIL-23p19 mAb 13B8-b was also compared to the original solution antibody by ELISA. Two different lots of each of solution and re-dissolved crystalline anti-huIL-23p19 mAb 13B8-b were tested for their ability to bind to IL-23. Human IL-23 was immobilized onto an ELISA plate, and serial dilutions of anti-huIL-23p19 mAb 13B8-b (solution or re-dissolved crystalline) were added to the wells. After the plates were washed, bound antibody was detected using an HRP-labeled anti-IgG antibody and a colorimetric substrate. Plates were read in a plate reader and the dose response curves were analyzed using a four-parameter logistic fit. At equilibrium, the EC50 of a saturation binding curve reflects the equilibrium binding dissociation constant (KD), where a higher value represents lower affinity, and a lower value represents higher affinity, of the antibody for the ligand. The potency of the test sample is assessed by comparing binding curves of the test samples to a reference material by the ratio of the EC50's. Potency is expressed as percent of reference material, in this case, selected to be lot #1 of the solution form of anti-huIL-23p19 mAb 13B8-b.

Values joined by “and” are separate entries in the source; they are usually repeats but may differ in a detail not shown here. Equal values may be shown once.

B1: humanized anti-human IL-23p19 monoclonal antibody 13B8-b (antibody, human IgG1, kappa, V domains shown)
VH: QVQLVQSGAEVKKPGASVKVSCKASGYIFITYWMTWVRQAPGQGLEWMGQIFPASGSADYNEKFEGRVTMTTDTSTSTAYMELRSLRSDDTAVYYCARGGGGFAYWGQGTLVTVSS
VL: DIQMTQSPSSLSASVGDRVTITCRTSENIYSYLAWYQQKPGKAPKLLIYNAKTLAEGVPSRFSGSGSGTDFTLTISSLQPEDFATYYCQHHYGIPFTFGQGTKVEIKR
notes: Full-length IgG1 kappa; It was tested as never-crystallized solution material (two lots) and as antibody re-dissolved from crystals (two lots); also called anti-huIL-23p19 mAb 13B8-b; hu13B8-b
As for B1, the EC50 is 0.071 nM and 0.106 nM and 0.073 nM and 0.116 nM.
